Source: PMC4394031 (Structure (London, England : 1993), 2015)

Legend:
[1] = target: T1, Human Nrp2-b1b2 (Neuropilin-2 domains b1b2, residues 276–595) (human, UniProt O60462 276-595); experiment: differential scanning fluorimetry
T1 sequence (looked up): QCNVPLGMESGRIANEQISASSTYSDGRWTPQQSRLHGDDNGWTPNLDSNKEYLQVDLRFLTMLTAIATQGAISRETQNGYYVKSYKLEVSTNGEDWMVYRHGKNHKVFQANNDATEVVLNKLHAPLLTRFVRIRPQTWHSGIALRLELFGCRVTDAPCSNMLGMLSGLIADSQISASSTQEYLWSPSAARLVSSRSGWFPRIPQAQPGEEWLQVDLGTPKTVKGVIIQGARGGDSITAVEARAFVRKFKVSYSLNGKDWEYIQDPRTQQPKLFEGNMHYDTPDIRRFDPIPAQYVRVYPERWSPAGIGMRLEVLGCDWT

[2] = target: T1, Human Nrp2-b1b2 (Neuropilin-2 domains …); experiment: crystal structure
[3] = target: the molecule itself; experiment: crystal structure
[4] = target: T1, Human Nrp2-b1b2 (Neuropilin-2 domains …); experiment: plate competition assay with AP-tagged ligand
[5] = target: T2, AP-VEGF-C (alkaline phosphatase-tagged VEGF-C, residues 108–223) (UniProt P97953 108-223); experiment: plate competition assay with AP-tagged ligand
T2 sequence (looked up): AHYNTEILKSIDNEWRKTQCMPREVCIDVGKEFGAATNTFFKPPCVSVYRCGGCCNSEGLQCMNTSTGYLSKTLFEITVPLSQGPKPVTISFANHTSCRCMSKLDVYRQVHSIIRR

## WRQVHSIIRR [processed VEGF-C C-terminus peptide (215-RQVHSIIRR-223)]
[1]
  Kd: 199 µM
  Tm of Nrp2-b1b2 with 0.5 mM peptide (48.8°C without): 50.3 °C

## SIIRR [VEGF-C C-terminus (219-SIIRR-223), the C-terminal five amino acids of mature VEGF-C]
[2]
  binding result: binds

B1: Nrp2-b1b2/VEGF-C fusion (human Nrp2 residues 276–595 with VEGF-C 219-SIIRR-223 fused to its C-terminus) (other)
chain: QCNVPLGMESGRIANEQISASSTYSDGRWTPQQSRLHGDDNGWTPNLDSNKEYLQVDLRFLTMLTAIATQGAISRETQNGYYVKSYKLEVSTNGEDWMVYRHGKNHKVFQANNDATEVVLNKLHAPLLTRFVRIRPQTWHSGIALRLELFGCRVTDAPCSNMLGMLSGLIADSQISASSTQEYLWSPSAARLVSSRSGWFPRIPQAQPGEEWLQVDLGTPKTVKGVIIQGARGGDSITAVEARAFVRKFKVSYSLNGKDWEYIQDPRTQQPKLFEGNMHYDTPDIRRFDPIPAQYVRVYPERWSPAGIGMRLEVLGCDWTSIIRR
[3]
  binding result: binds

## ATWLPPR [ATWLPPR, an optimized peptide inhibitor of Nrp]
[4]
  IC50: 10 µM

B2: human Nrp2-b1 (residues 276–430) (domain or fragment, UniProt O60462 276-430, looked up)
chain: QCNVPLGMESGRIANEQISASSTYSDGRWTPQQSRLHGDDNGWTPNLDSNKEYLQVDLRFLTMLTAIATQGAISRETQNGYYVKSYKLEVSTNGEDWMVYRHGKNHKVFQANNDATEVVLNKLHAPLLTRFVRIRPQTWHSGIALRLELFGCRVT
[5]
  IC50: 1500 nM
